# Measurements published in patent US20220098328A1, “ANTIBODIES TO M(H)DM2/4 AND THEIR USE IN DIAGNOSING AND TREATING CANCER” (NomoCan Pharmaceuticals LLC, priority 2017, published 2022).
# B1: NMC-303: mouse monoclonal antibody of the IgM isotype that binds to NMC-P3 (SEQ ID NO:3); VH SEQ ID NO:40, VL SEQ ID NO:41 (antibody, V domains shown)
# VH: QVQLQQPGAELVKPGASVKLSCKASGYTFTSYYMYWVKQRPGQGLEWIGGINPRNGGTNFNEKFKNKATLTADKSSTTAYMQLSSLTSEDSAVYYCTRSGYYAMDYWGQGTSVTVSS
# VL: DIQMTQTTSSLSASLGDRVTISCRASQDISNFLNWYQQKPDGTVKLLIYYTSRLHSGVPSRFSGSGSGTDYSLTISNLEQEDIATYFCQQGNTLPRTFGGGTKLEIK
# modifications: mAb NMC-303 Heavy Chain Variable Region; mAb NMC-303 Light Chain Variable Region
# What was measured:
# [1] = target: E-Cadherin on intact mouse LL/2 cancer cells (mouse) (UniProt P09803); assay: cell-based ELISA on intact LL/2 cells, 5 µg/mL, OD450
# Chain of E-Cadherin on intact mouse LL/2 cancer cells (mouse) (P09803 157-884): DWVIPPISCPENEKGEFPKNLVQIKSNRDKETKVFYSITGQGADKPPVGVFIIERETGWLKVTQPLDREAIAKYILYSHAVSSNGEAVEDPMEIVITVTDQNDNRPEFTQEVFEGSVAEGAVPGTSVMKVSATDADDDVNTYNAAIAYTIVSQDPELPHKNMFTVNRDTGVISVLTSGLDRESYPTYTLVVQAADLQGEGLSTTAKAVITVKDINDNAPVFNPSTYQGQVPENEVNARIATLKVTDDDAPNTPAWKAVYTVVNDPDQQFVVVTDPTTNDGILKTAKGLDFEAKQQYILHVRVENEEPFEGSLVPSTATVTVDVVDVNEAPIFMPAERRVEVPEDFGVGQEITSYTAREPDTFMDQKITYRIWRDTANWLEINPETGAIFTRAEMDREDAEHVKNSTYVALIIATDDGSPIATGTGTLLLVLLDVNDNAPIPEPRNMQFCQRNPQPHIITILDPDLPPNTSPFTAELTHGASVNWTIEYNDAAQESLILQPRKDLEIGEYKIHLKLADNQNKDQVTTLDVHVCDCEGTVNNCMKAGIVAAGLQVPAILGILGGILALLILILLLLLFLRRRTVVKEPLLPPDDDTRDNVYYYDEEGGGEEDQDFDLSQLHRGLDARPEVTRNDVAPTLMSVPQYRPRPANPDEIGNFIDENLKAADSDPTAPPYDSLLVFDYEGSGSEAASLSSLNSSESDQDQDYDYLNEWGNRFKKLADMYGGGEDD
# [2] = test system: plasma membrane M(H)DM2/4; assay: Plasma membrane M(H)DM2/4 after treatment of cells with chemotherapeutic agents (in vitro); assay type: cell-based; details: data not shown
# [3] = test system: human, murine, rabbit protein; design: key: H—binds to human protein; M—binds to murine protein; R—binds to rabbit protein; details: cited from earlier work
# [4] = test system: human pancreatic cancer MIA PaCa-2 cells; assay: Cell-ELISA on intact cells; assay type: cell-based
# Experimental: (§1) Cell-ELISA Methodology: 8,000-10,000 cells/well of a 96-well microplate were grown overnight. The next day, unbound cells were washed off with sterile 1×PBS. The cells in each well were fixed with freshly prepared 4% buffered paraformaldehyde (pH 7.2) for 1 hour followed by 3 washes with 1×PBS. The wells were then blocked with 5% BSA in PBS (100 μl/well) for 2 hours at room temperature. Microplate wells were then washed 5 times with 300 μl of ice cold 1×PBS. MAbs NMC-103, NMC-204 or NMC-303 at 1 μg/mL in 1% BSA/PBS were then incubated with various cancer or normal untransformed cells for 2 hours at room temperature. Wells were then washed with 300 μl of ice-cold 1×PBS for 5 times and corresponding secondary antibody HRP-GaM F(ab′)2 diluted 1:2500 or 1:5000 in PBS with 1% BSA were added at 100 μl/well for 1 hour at room temperature followed by washing 5 times with 300 μl of ice-cold 1×PBS. TMB Substrate Solution (1-Step™ Ultra TMB-ELISA, ThermoFisher, Cat. No. 34028) was then added at 50 μL to each microplate well and incubated at room temperature for 30 minutes. The reaction was stopped by addition of 50 μL of stop solution (ThermoFisher, Cat. No. SS04) to each well and absorbance of each well was measured at OD450 nm. The absorbance value of each experimental well was corrected for the absorbance value obtained from wells treated with isotype-identical mAbs included in each experiment. The results are thus expressed as “relative binding”.
# (§2) In a 96-well microplate, 15,000 cells/well were cultured overnight. The next day, unbound cells were washed off with sterile 1×PBS. The cells in each well were fixed with freshly prepared 4% buffered paraformaldehyde (pH 7.2) for 1 hour, followed by 3 washes with 1×PBS. The wells were then blocked with 5% BSA in PBS (100 μl/well) for 2 hours at room temperature. Microplate wells were then washed 5 times with 300 μl of ice cold 1×PBS. Monoclonal antibodies NMC-H103 (VH4/VK3) or NMC-C303 at 5 μg/mL in 1% BSA/PBS were then incubated with various cancer cells for 2 hours at room temperature. Wells were then washed with 300 μl of ice-cold 1×PBS for 5 times and corresponding secondary antibody HRP-GaH F(ab′)2 diluted 1:2000 or 1:4000 in PBS with 1% BSA were added at 100 μl/well for 1 hour at room temperature followed by washing 5 times with 300 μl of ice-cold 1×PBS. TMB Substrate Solution (1-Step™ Ultra TMB-ELISA, ThermoFisher, Cat. No. 34028) was then added at 50 μL to each microplate well and incubated at room temperature for 30 minutes. The reaction was stopped by addition of 50 μL of stop solution (ThermoFisher, Cat. No. SS04) to each well and absorbance of each well was measured at OD450 nm. The absorbance value of each experimental well was corrected for the absorbance value obtained from wells treated with isotype-identical mAbs included in each experiment.
# [5] = target: NMC-P3 peptide (SEQ ID NO:3), amino acids 475-491 of HDM2 (Homo sapiens, UniProt Q00987); assay: Peptide-ELISA; assay type: binding; details: 5 μg/ml peptide on plate, OD 450 nm
# Experimental: Peptide-ELISA Methodology: 5 μg/ml of NMC-P1, NMC-P2 or NMC-P3 peptide antigen was dried onto a 96-well ELISA plate overnight. Plates were then blocked with 5% BSA in 1× phosphate-buffered saline (PBS) (100 μl/well) for 2 hours at room temperature. Microplate wells were then washed 5 times with 300 μl of ice cold 1×PBS. Appropriate dilutions of monoclonal antibodies NMC-103, NMC-204 or NMC-303 in 1% bovine serum albumin (BSA) in PBS solution were then incubated with their corresponding peptides (NMC-P1, NMC-P2 or NMC-P3, respectively) at room temperature. After 2 hours, wells were washed 5 times with 300 μl ice-cold PBS/well and 100 μl secondary antibody (HRP-labeled Goat anti-Mouse F(ab′)2 H&L cross-adsorbed secondary antibody (HRP-GaM F(ab′)2), ThermoFisher, Cat. No. A24524) diluted 1:2500 to 1:5000 in PBS-1% BSA solution were added and the incubation continued at room temperature. After 1 hour, the wells were washed again 5 times with 200 μl of ice-cold PBS and 50 μL of the TMB Substrate Solution (1-Step™ Ultra TMB-ELISA, ThermoFisher, Cat. No. 34028) were added to each well and color was allowed to develop for 30 minutes at room temperature. The reaction was stopped by addition of 50 μL of stop solution (ThermoFisher, Cat. No. SS04) to each well and absorbance of each well was read immediately for optical density (OD) at 450 nm.
# [6] = target: T1, recombinant HDM2 protein (GST tagged) (Homo sapiens, UniProt Q00987); assay: Western blot (immunoblot); assay type: binding; details: 1 μg/well protein, antibody 1 μg/ml; band at approximately 83 kD
# T1 construct: NMC-103, NMC-204 and NMC-303 reacted with the recombinant full-length HDM2 protein; purchased Abcam ab188727
# T1 sequence (Q00987 whole entry): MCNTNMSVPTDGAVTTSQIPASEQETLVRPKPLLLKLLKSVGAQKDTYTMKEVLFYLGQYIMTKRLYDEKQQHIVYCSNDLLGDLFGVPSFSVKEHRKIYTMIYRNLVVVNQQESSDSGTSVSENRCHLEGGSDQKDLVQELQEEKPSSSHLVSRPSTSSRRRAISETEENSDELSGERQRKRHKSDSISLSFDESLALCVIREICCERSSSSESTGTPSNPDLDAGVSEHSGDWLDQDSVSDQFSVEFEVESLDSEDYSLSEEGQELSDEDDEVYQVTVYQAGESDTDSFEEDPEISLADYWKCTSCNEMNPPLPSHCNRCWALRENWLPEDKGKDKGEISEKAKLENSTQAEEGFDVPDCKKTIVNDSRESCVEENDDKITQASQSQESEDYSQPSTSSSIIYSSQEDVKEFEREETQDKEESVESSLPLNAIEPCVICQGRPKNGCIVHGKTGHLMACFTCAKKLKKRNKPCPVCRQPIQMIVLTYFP
# Experimental: Western Blot: As for immunoblots, 1 μg/well of recombinant HDM2 protein (GST tagged, Abcam, Cat. No. ab188727) was separated on 8-16% sodium dodecyl sulfate (SDS) polyacrylamide gel and proteins were then transferred to polyvinylidene difluoride (PVDF) membrane. The membrane was blocked with 5% milk followed by incubation with monoclonal antibody NMC-103, NMC-204 or NMC-303 at 1 μg/ml in 1% milk in PBS for 2 hours. The membrane was then washed ×3 times (10 minutes each) and incubated for 1 hour with corresponding HRP-conjugated secondary antibody (Goat anti-Mouse IgG (H&L), F(ab′)2 Frag Cross-adsorbed HRP (HRP-GaM F(ab′)2), ThermoFisher, Cat. No. A24524) diluted 1:5000 in 1% BSA-PBS. The membrane was then washed ×3 times and incubated with Pierce ECL Plus Western Blotting Substrate (ThermoFisher, Cat. No. #32132) for 10 min before developing on a LICOR Scanner.
# [7] = test system: human triple negative breast cancer HCC1806 cells; assay: Cell-ELISA on intact cells; assay type: cell-based; details: mAb 1 μg/mL, fixed, non-permeabilized cells
# Experimental: as §1
# [8] = test system: normal human peripheral blood mononuclear cells (PBMCs); assay: Cell-ELISA on intact cells; assay type: cell-based; details: freshly isolated normal human PBMCs
# Experimental: as §1
# [9] = test system: human uveal melanoma 92.1 cells; assay: Cell-ELISA on intact cells; assay type: cell-based; details: mAb 1 μg/mL, fixed, non-permeabilized cells
# Experimental: as §1
# [10] = test system: human breast cancer MCF-7 cells; assay: Cell-ELISA on intact cells; assay type: cell-based; details: MCF-7; mAb 1 μg/mL; fixed, non-permeabilized cells
# Experimental: as §1, §2
# [11] = test system: human melanoma A2058 cells; assay: Cell-ELISA on intact cells; assay type: cell-based; details: A2058; mAb 1 μg/mL; fixed, non-permeabilized cells
# Experimental: as §1, §2
# [12] = test system: primary patient-derived human ovarian cancer OVCA4 cells; assay: Cell-ELISA on intact cells; assay type: cell-based; details: OVCA4; mAb 1 μg/mL; fixed, non-permeabilized cells
# Experimental: as §1, §2
# [13] = test system: human ovarian cancer OVCAR-3 cells; assay: Cell-ELISA on intact cells; assay type: cell-based; details: OVCAR-3 (resistant to adriamycin, melphalan, cisplatin); mAb 1 μg/mL; fixed, non-permeabilized cells
# Experimental: as §1, §2
# [14] = test system: mouse pancreatic Panc02 cells; assay: Cell-ELISA on intact cells; assay type: cell-based; details: Panc02; mAb 1 μg/mL; fixed, non-permeabilized cells
# Experimental: as §1, §2
# [15] = test system: mouse Lewis Lung LL/2 cells; assay: Cell-ELISA on intact cells; assay type: cell-based; details: LL/2; mAb 1 μg/mL; fixed, non-permeabilized cells
# Experimental: as §1, §2
# [16] = test system: mouse colon cancer MC-38 cells; assay: Cell-ELISA on intact cells; assay type: cell-based; details: MC-38; mAb 1 μg/mL; fixed, non-permeabilized cells
# Experimental: as §1, §2
molecule,measurement,setting,value
E-cadherin G10 (SC-8426) (antibody),average OD reading,[1],1.49 OD
Nc1ccn([C@@H]2O[C@H](CO)[C@@H](O)C2(F)F)c(=O)n1 [Gemcitabine],plasma membrane M(H)DM2/4 level of treated cells,[2],increase in plasma membrane M(H)DM2/4
CC(=O)O[C@H]1C(=O)[C@@]2(C)[C@H]([C@H](OC(=O)c3ccccc3)[C@]3(O)C[C@H](OC(=O)[C@H](O)[C@@H](NC(=O)c4ccccc4)c4ccccc4)C(C)=C1C3(C)C)[C@]1(OC(C)=O)CO[C@@H]1C[C@@H]2O [Paclitaxel],plasma membrane M(H)DM2/4 level of treated cells,[2],increase in plasma membrane M(H)DM2/4
Cytochrome C [reference compound],Species Reactivity,[3],H
same,"binding to intact, EDTA-released MiaPaCa-2 cells, cell-ELISA","[4]; EDTA 10 mmols, pH 7.2, 5 min, 37° C.",only minimal binding
B1,binding to NMC-P3 peptide,[5],bound
same,reactivity with recombinant full-length HDM2-GST protein (immunoblot),[6],reacted
same,"relative binding (reactivity) to intact cells, cell-ELISA",[7],reactivity
same,"binding to intact normal cells, cell-ELISA",[8],virtually no binding
same,"relative binding (reactivity) to intact cells, cell-ELISA",[9],reactivity
same,"relative binding (reactivity) to intact cells, cell-ELISA",[10],reactivity
same,"relative binding (reactivity) to intact cells, cell-ELISA",[11],reactivity
same,"relative binding (reactivity) to intact cells, cell-ELISA",[12],reactivity
same,"relative binding (reactivity) to intact cells, cell-ELISA","[4]; MIA PaCa-2, mAb 1 μg/mL, fixed, non-permeabilized cells",reactivity
same,binding to intact MIA PaCa-2 cells when competed with NMC-P3 peptide,[4]; cell-ELISA peptide competition,competed
same,"relative binding (reactivity) to intact cells, cell-ELISA",[13],reactivity
same,"relative binding (reactivity) to intact cells, cell-ELISA",[14],reactivity
same,"relative binding (reactivity) to intact cells, cell-ELISA",[15],reactivity
same,"relative binding (reactivity) to intact cells, cell-ELISA",[16],reactivity
